Results on two molecules are retold here after patent US20200231681A1.

“And” between values parts separate entries of the source, which are not always exact repeats. Identical values can stand only once.

For assay [1], the target named is human FGF R3 (IIIc) Fc chimera (R&D systems, 766-FR) (human) (UniProt P22607). The assay is described as follows: indirect ELISA, hu8C4 at 0.048 nM. In general terms: An ELISA detects its analyte on a solid surface through an enzyme-linked reagent.
The target is the same in assay [2]. The assay is described as follows: indirect ELISA, hu8C4 at 0.002 nM.
For assay [3] the target is unchanged. The assay is described as follows: indirect ELISA, hu8C4 at 0.010 nM.
For assay [4] the target is unchanged. The assay is described as follows: indirect ELISA, hu8C4 at 30.000 nM.
Assay [5] deals with c-Met receptor on human tumor cells (MKN45, NCI-H820, HCC827) (human) (UniProt P08581). The assay is described as follows: flow cytometry on MKN45 cells, (MFI 37° C. - IgG)/(MFI 4° C. - IgG) x 100. Background: A flow cytometer gives signals particle by particle.
Chain of c-Met receptor on human tumor cells (MKN45, NCI-H820, HCC827) (human) (P08581 25-1390): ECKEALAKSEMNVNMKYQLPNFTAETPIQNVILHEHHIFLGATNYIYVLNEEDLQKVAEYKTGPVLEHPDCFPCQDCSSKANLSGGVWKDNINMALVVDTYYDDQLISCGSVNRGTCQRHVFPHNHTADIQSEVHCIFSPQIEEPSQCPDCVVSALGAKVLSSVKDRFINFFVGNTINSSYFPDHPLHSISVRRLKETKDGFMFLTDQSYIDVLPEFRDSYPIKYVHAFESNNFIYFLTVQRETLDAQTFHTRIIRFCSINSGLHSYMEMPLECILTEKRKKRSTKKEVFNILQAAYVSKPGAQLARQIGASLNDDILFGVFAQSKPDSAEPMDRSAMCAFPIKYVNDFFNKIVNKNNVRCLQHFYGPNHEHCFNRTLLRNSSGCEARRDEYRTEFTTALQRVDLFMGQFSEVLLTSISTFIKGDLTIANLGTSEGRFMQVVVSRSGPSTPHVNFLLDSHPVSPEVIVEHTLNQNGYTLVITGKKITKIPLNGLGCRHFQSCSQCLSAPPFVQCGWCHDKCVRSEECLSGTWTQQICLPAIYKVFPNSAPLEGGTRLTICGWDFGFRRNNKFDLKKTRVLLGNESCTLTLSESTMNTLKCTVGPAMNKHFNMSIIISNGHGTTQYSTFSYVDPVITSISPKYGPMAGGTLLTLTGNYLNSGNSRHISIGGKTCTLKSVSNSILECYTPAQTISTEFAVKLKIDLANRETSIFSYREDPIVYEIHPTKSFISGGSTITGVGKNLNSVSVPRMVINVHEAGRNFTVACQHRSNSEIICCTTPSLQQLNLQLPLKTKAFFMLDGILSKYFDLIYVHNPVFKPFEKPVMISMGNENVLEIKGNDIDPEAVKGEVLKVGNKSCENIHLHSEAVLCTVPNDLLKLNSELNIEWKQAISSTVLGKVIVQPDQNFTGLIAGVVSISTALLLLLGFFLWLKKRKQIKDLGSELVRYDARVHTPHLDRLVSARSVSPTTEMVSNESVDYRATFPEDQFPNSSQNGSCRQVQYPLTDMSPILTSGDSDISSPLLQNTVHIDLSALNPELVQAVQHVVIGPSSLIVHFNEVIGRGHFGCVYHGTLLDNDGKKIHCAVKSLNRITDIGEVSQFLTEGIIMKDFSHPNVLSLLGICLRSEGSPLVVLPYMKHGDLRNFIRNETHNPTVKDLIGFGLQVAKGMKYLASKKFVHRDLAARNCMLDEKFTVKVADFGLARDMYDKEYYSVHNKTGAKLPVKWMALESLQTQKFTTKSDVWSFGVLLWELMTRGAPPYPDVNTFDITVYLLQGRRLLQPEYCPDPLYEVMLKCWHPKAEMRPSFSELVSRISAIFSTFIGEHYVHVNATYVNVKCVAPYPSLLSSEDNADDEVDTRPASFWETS
Assay [6] shares this target. The assay is described as follows: flow cytometry on MKN45 cells, 100 nM antibody, 4° C. 1 hour (not internalized), anti-human kappa LC-FITC.
For assay [7] the target is unchanged. The assay is described as follows: flow cytometry on MKN45 cells, 100 nM antibody overnight at 37° C., antibody left on the surface, anti-human kappa LC-FITC.

B1: hu8C4 (IgG1 humanized antibody having a hinge region of SEQ ID NO: 38 in hu8C4-1) (antibody, V domains shown)
VH: EVQLVESGGGLVQPGGSLRLSCAASGYTFSDYYINWVRQAPGKGLEWIGEIFPGSGNTHFSARFKGRATLSADKSKNTAYLQMNSLRAEDTAVYYCAGGDYGFLYWGQGTLVTVSS
VL: DIQMTQSPSSLSASVGDRVTITCGASENIYGALNWYQQKPGKAPKLLIYGATNLADGVPSRFSGSGSGRDFTFTISSLQPEDIATYYCQNVLSSPYTFGQGTKVEIK
Turning to B1, the A450 nm-A570 nm (A450 nm-A570 nm) is 0 in assay [1]; 0 in assay [2]; 0 in assay [3]; 0.01 and 0.02 in assay [4].

B2: OA-5D5 (Genentech) (antibody, INN chains, looked up, V domains shown)
VH: EVQLVESGGGLVQPGGSLRLSCAASGYTFTSYWLHWVRQAPGKGLEWVGMIDPSNSDTRFNPNFKDRFTISADTSKNTAYLQMNSLRAEDTAVYYCATYRSYVTPLDYWGQGTLVTVSS
VL: DIQMTQSPSSLSASVGDRVTITCKSSQSLLYTSSQKNYLAWYQQKPGKAPKLLIYWASTRESGVPSRFSGSGSGTDFTLTISSLQPEDFATYYCQQYYAYPWTFGQGTKVEIK
modifications: one-armed
For the molecule B2, the Surface bound Ab(%) in assay [5] was 98%. In addition, in assay [6], the FITC MFI [4° C. control] (FITC geo-mean (MFI)) was determined as 1760. The same molecule registered an FITC MFI [37° C. exp.] (FITC geo-mean (MFI)) in assay [7] of 1720.
